From patent publication US20200002439A1 (GENSUN BIOPHARMA, published 2020)

T1: His tagged human Angiopoietin-2 (human, UniProt O15123 19-496, limits assumed)
T1 construct: Antigen of the bio-layer interferometry experiments; also called Ang-2; Ang2
T1 sequence (looked up): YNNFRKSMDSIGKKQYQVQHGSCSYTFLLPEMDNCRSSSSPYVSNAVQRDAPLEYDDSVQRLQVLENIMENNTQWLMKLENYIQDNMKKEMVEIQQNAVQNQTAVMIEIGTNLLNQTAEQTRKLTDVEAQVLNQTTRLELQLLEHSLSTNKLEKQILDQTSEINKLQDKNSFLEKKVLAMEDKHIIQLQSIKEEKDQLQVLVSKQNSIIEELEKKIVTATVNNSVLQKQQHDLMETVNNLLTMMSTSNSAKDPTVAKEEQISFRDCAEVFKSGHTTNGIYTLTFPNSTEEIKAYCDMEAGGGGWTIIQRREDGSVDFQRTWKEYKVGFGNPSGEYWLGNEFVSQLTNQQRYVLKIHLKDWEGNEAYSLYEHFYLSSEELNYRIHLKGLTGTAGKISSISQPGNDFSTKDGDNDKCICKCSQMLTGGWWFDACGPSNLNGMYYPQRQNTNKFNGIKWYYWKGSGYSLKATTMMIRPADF

T2: recombinant human Ang2 (human, UniProt O15123 19-496)
T2 construct: also called Ang2 (R&D)
T2 sequence (looked up): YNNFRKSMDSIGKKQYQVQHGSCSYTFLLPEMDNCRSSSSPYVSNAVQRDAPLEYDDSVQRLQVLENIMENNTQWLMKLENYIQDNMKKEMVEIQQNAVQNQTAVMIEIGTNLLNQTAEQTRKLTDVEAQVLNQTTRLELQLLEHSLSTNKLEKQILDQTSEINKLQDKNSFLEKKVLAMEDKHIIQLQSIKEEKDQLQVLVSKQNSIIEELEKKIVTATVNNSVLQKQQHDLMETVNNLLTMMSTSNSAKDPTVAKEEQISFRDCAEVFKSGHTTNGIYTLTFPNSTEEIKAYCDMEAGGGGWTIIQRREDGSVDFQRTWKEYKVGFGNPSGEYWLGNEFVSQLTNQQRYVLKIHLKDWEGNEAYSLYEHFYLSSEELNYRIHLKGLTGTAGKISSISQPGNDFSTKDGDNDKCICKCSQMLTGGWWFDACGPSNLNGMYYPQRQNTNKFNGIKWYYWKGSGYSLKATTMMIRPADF


Assays:
[1] = biological target: T3, human PD-1 on transfected CHO-K1 cells (human, UniProt Q15116 25-288); test: cell-based blocking assay, flow cytometry: binding of FITC labeled human PD-L1-Fc to human PD-1 transfected CHO-K1 cells is blocked
T3 construct: also called Human PD-1 transfected CHO-K1 cells

[2] = biological target: T4, recombinant human VEGF 165 (human, UniProt P15692-4 27-191); test: cell-based or functional assay
[3] = biological target: T4, recombinant human VEGF 165; test: cell-based or functional assay; remark: listed apart in the source
[4] = biological target: T1, His tagged human Angiopoietin-2; test: bio-layer interferometry, rhAng2-His
[5] = biological target: T4, recombinant human VEGF 165; test: bio-layer interferometry, rhVEGF165
His tagged human PD-1 [6] = biological target: T5, His tagged human PD-1 (human, UniProt Q15116 25-170); test: bio-layer interferometry, PD-1-His (R&D); column head prints KD (nM) but the cell carries E-09, and Kd/Ka of the same row gives this number in M
T5 construct: also called His tagged human PD-I; PD-1 protein

His tagged human PD-1 [7] = biological target: T5, His tagged human PD-1; test: bio-layer interferometry, PD-1-His (R&D)
recombinant human Ang2 = biological target: T2, recombinant human Ang2; test: blocking ELISA: Ang2 coated on the plate, binding of recombinant human Tie2 is blocked

T3 sequence (Q15116 25-288 limits assumed): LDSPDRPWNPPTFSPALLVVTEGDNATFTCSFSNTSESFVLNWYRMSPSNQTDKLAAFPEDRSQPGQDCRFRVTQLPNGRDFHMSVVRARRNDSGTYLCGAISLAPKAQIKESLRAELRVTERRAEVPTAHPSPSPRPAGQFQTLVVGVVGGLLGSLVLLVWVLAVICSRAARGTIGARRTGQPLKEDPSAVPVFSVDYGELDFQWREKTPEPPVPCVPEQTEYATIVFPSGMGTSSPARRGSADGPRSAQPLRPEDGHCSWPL
T5 sequence (Q15116 25-170 limits assumed): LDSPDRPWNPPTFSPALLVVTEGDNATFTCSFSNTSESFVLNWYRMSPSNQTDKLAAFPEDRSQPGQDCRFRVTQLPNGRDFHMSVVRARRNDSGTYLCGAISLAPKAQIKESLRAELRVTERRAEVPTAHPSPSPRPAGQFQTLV
T4 sequence (P15692 other isoform, or with tags, fused parts or gaps limits assumed): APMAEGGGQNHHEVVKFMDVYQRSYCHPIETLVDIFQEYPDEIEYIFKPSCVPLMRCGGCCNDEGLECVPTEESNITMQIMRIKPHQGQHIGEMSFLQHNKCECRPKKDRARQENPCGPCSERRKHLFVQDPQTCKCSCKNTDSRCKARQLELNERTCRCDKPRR

Binder | IC50 [1] | IC50 (VEGF-induced luciferase signal, cell based VEGF neutralization assay on VEGFR-2 reporter cells) [2] | IC50 (read off the curve) [3] | Kd [4] | koff [4] | kon [4] | Kd [5] | koff [5] | kon [5] | Kd (His tagged human PD-1 [6]) | koff (His tagged human PD-1 [7]) | kon (His tagged human PD-1 [7]) | IC50 (recombinant human Ang2)
TS-ZPT-3S(2P17) (other, Trispecific antagonist: 2P17 variable domains, single copy of the trebananib peptide within CH3, aflibercept domain at the carboxy terminus by a 3xG4S linker) heavy: QVQLVQSGAEVKKPGASVKVSCKASGYTFTSYYIHWVRQAPGQGLEWMGWIFPGSGNSKYNENFKGRVTLTADTSTSTVYMELSSLRSEDTAVYYCASETYDYGDYWGQGTLVTVSSASTKGPSVFPLAPCSRSTSESTAALGCLVKDYFPEPVTVSWNSGALTSGVHTFPAVLQSSGLYSLSSVVTVPSSSLGTKTYTCNVDHKPSNTKVDKRVESKYGPPCPPCPAPEFLGGPSVFLFPPKPKDTLMISRTPEVTCVVVDVSQEDPEVQFNWYVDGVEVHNAKTKPREEQFNSTYRVVSVLTVLHQDWLNGKEYKCKVSNKGLPSSIEKTISKAKGQPREPQVYTLPPSQEEMGGQEECEWDPWTCEHMGGTKNQVSLTCLVKGFYPSDIAVEWESNGQPENNYKTTPPVLDSDGSFFLYSRLTVDKSRWQEGNVFSCSVMHEALHNHYTQKSLSLSLGKGGGGSGGGGSGGGGSSDTGRPFVEMYSEIPEIIHMTEGRELVIPCRVTSPNITVTLKKFPLDTLIPDGKRIIWDSRKGFIISNATYKEIGLLTCEATVNGHLYKTNYLTHRQTNTIIDVVLSPSHGIELSVGEKLVLNCTARTELNVGIDFNWEYPSSKHQHKKLVNRDLKTQSGSEMKKFLSTLTIDGVTRSDQGLYTCAASSGLMTKKNSTFVRVHEK light: DIQMTQSPSFLSASVGDRVTITCKASQNVGTNVAWYQQKPGKAPKALIYSASYRYSGVPSRFSGSGSGTEFTLTISSLQPEDFATYYCQQYYSYPYTFGQGTKLEIKRTVAAPSVFIFPPSDEQLKSGTASVVCLLNNFYPREAKVQWKVDNALQSGNSQESVTEQDSKDSTYSLSSTLTLSKADYEKHKVYACEVTHQGLSSPVTKSFNRGEC | 0.37 nM | – | – | 0.65 nM | 8.66e-05 s⁻¹ | 134000 M⁻¹ s⁻¹ | 0.0052 nM | 5.03e-06 s⁻¹ | 974000 M⁻¹ s⁻¹ | 3.71 nM | 0.00146 s⁻¹ | 394000 M⁻¹ s⁻¹ | 9.34 nM
TS-ZPT-3S(2P16) (other) chain 1: QVQLVQSGAEVKKPGASVKVSCKASGYTFTTYYIYWVRQAPGQGLEWMGGINPGNGGTNFNEKFKIRVTMTRDTSISTAYMELSSLRSEDTAVYYCARRYHGYDGGLDYWGQGTLVTVSSASTKGPSVFPLAPCSRSTSESTAALGCLVKDYFPEPVTVSWNSGALTSGVHTFPAVLQSSGLYSLSSVVTVPSSSLGTKTYTCNVDHKPSNTKVDKRVESKYGPPCPPCPAPEFLGGPSVFLFPPKPKDTLMISRTPEVTCVVVDVSQEDPEVQFNWYVDGVEVHNAKTKPREEQFNSTYRVVSVLTVLHQDWLNGKEYKCKVSNKGLPSSIEKTISKAKGQPREPQVYTLPPSQEEMGGQEECEWDPWTCEHMGGTKNQVSLTCLVKGFYPSDIAVEWESNGQPENNYKTTPPVLDSDGSFFLYSRLTVDKSRWQEGNVFSCSVMHEALHNHYTQKSLSLSLGKGGGGSGGGGSGGGGSSDTGRPFVEMYSEIPEIIHMTEGRELVIPCRVTSPNITVTLKKFPLDTLIPDGKRIIWDSRKGFIISNATYKEIGLLTCEATVNGHLYKTNYLTHRQTNTIIDVVLSPSHGIELSVGEKLVLNCTARTELNVGIDFNWEYPSSKHQHKKLVNRDLKTQSGSEMKKFLSTLTIDGVTRSDQGLYTCAASSGLMTKKNSTFVRVHEK chain 2: DIVLTQSPASLAVSPGQRATITCRASKSVSTSGFSYIHWYQQKPGQPPKLLIYLASNLESGVPARFSGSGSGTDFTLTINPVEANDTANYYCQHTWELPNTFGGGTKVEIKRTVAAPSVFIFPPSDEQLKSGTASVVCLLNNFYPREAKVQWKVDNALQSGNSQESVTEQDSKDSTYSLSSTLTLSKADYEKHKVYACEVTHQGLSSPVTKSFNRGEC | 0.43 nM | – | – | – | – | – | 0.0063 nM | 4.31e-06 s⁻¹ | 683000 M⁻¹ s⁻¹ | 4.76 nM | 0.00159 s⁻¹ | 335000 M⁻¹ s⁻¹ | –

Continued, values first:

IC50 [1] | IC50 (VEGF-induced luciferase signal, cell based VEGF neutralization assay on VEGFR-2 reporter cells) [2] | IC50 (read off the curve) [3] | Kd [4] | koff [4] | kon [4] | Kd [5] | koff [5] | kon [5] | Kd (His tagged human PD-1 [6]) | koff (His tagged human PD-1 [7]) | kon (His tagged human PD-1 [7]) | IC50 (recombinant human Ang2) | Binder
0.37 nM | – | – | – | – | – | – | – | – | – | – | – | – | 2P17 (antibody, V domains shown, also called PD-06; parental antibody 2P17) VH: QVQLVQSGAEVKKPGASVKVSCKASGYTFTSYYIHWVRQAPGQGLEWMGWIFPGSGNSKYNENFKGRVTLTADTSTSTVYMELSSLRSEDTAVYYCASETYDYGDYWGQGTLVTVSS VL: DIQMTQSPSFLSASVGDRVTITCKASQNVGTNVAWYQQKPGKAPKALIYSASYRYSGVPSRFSGSGSGTEFTLTISSLQPEDFATYYCQQYYSYPYTFGQGTKLEIK
– | 0.14 nM | ~0.1 nM | – | – | – | – | – | – | – | – | – | – | Bi-ZP-2 (bispecific antibody, human IgG1, kappa, N297A) heavy: not shown light: DIQMTQSPSFLSASVGDRVTITCKASQNVGTNVAWYQQKPGKAPKALIYSASYRYSGVPSRFSGSGSGTEFTLTISSLQPEDFATYYCQQYYSYPYTFGQGTKLEIKRTVAAPSVFIFPPSDEQLKSGTASVVCLLNNFYPREAKVQWKVDNALQSGNSQESVTEQDSKDSTYSLSSTLTLSKADYEKHKVYACEVTHQGLSSPVTKSFNRGEC
0.65 nM | – | – | 0.7 nM | 9.05e-05 s⁻¹ | 130000 M⁻¹ s⁻¹ | 0.0049 nM | 5e-06 s⁻¹ | 1.02e+06 M⁻¹ s⁻¹ | 3.84 nM | 0.00147 s⁻¹ | 382000 M⁻¹ s⁻¹ | 0.6 nM | TS-ZPT-3L(2P17) (other) heavy: QVQLVQSGAEVKKPGASVKVSCKASGYTFTSYYIHWVRQAPGQGLEWMGWIFPGSGNSKYNENFKGRVTLTADTSTSTVYMELSSLRSEDTAVYYCASETYDYGDYWGQGTLVTVSSASTKGPSVFPLAPCSRSTSESTAALGCLVKDYFPEPVTVSWNSGALTSGVHTFPAVLQSSGLYSLSSVVTVPSSSLGTKTYTCNVDHKPSNTKVDKRVESKYGPPCPPCPAPEFLGGPSVFLFPPKPKDTLMISRTPEVTCVVVDVSQEDPEVQFNWYVDGVEVHNAKTKPREEQFNSTYRVVSVLTVLHQDWLNGKEYKCKVSNKGLPSSIEKTISKAKGQPREPQVYTLPPSQEEMGGAQQEECEWDPWTCEHMGSGSATGGSGSTASSGSGSATHQEECEWDPWTCEHMGGTKNQVSLTCLVKGFYPSDIAVEWESNGQPENNYKTTPPVLDSDGSFFLYSRLTVDKSRWQEGNVFSCSVMHEALHNHYTQKSLSLSLGKGGGGSGGGGSGGGGSSDTGRPFVEMYSEIPEIIHMTEGRELVIPCRVTSPNITVTLKKFPLDTLIPDGKRIIWDSRKGFIISNATYKEIGLLTCEATVNGHLYKTNYLTHRQTNTIIDVVLSPSHGIELSVGEKLVLNCTARTELNVGIDFNWEYPSSKHQHKKLVNRDLKTQSGSEMKKFLSTLTIDGVTRSDQGLYTCAASSGLMTKKNSTFVRVHEK light: DIQMTQSPSFLSASVGDRVTITCKASQNVGTNVAWYQQKPGKAPKALIYSASYRYSGVPSRFSGSGSGTEFTLTISSLQPEDFATYYCQQYYSYPYTFGQGTKLEIKRTVAAPSVFIFPPSDEQLKSGTASVVCLLNNFYPREAKVQWKVDNALQSGNSQESVTEQDSKDSTYSLSSTLTLSKADYEKHKVYACEVTHQGLSSPVTKSFNRGEC
